Source: patent US20210340548A1
Positions count from the first letter of the chain named. Numbers in names are those of the source.

B1: TetR (I194T, 1-206)-CIB1 (-NLS) fusion construct as released from the TetR (I194T, 1-206)-CIB1 (-NLS)-T2A-Cry2 PHR (L348F)-p65AD-NLSx2 fusion construct (protein, part only)
chain: MARLDKSKVINSALELLNEVGIEGLTTRKLAQKLGVEQPTLYWHVKNKRALLDALAIEMLDRHHTHFCPLEGESWQDFLRNNAKSFRCALLSHRDGAKVHLGTRPTEKQYETLENQLAFLCQQGFSLENALYALSAVGHFTLGCVLEDQEHQVAKEERETPTTDSMPPLLRQAIELFDHQGAEPAFLFGLELITCGLEKQLKCESGSPKKKHMEFNGAIGGDLLLNFPDMSVLERQRAHLKYLNPTFDSPLAGFFADSSMITGGEMDSYLSTAGLNLPMMYGETTVEGDSRLSISPETTLGTGNFKAAKFDTETKDCNEAAKKMTMNRDDLVEEGEEEKSKITEQNNGSTKSIKKMKHKAKKEENNFSNDSSKVTKELEKTDYI
modifications: residual T2A residues at C-terminus
B2: rTetR (I194T, S2 mutation, 1-206)-CIB1 (-NLS) from the T2A construct (protein, part only; not given: Leftover T2A residues, part only)
chain, part: B1 chain with E19G, A56P, D148E, H179R
B3: rTetR (I194T, rtTA mutation, 1-206)-CIB1 (-NLS) from the T2A construct (protein, part only; not given: Leftover T2A residues, part only)
chain, part: B1 chain with E71K, D95N, L101S, G102D
B4: TetR (I194T, H100Y, 1-206)-CIB1 (-NLS) from the T2A construct (protein, part only)
chain: B1 chain with H100Y
modifications: T2A residues at C-terminus
B5: rTetR (I194T, V16 mutation, 1-206)-CIB1 (-NLS) from the T2A construct (protein, part only; not given: Leftover T2A residues, part only)
chain, part: B1 chain with V9I, E19G, A56P, F67S, F86Y, D148E, R171K, H179R
B6: rTetR (I194T, M2 mutation, 1-206)-CIB1 (-NLS) from the T2A construct (protein, part only; not given: Leftover T2A residues, part only)
chain, part: B1 chain with S12G, E19G, A56P, D148E, H179R
B7: rTetR (I194T, V10 mutation, 1-206)-CIB1 (-NLS) from the T2A construct (protein, part only; not given: Leftover T2A residues, part only)
chain, part: B1 chain with E19G, A56P, F67S, F86Y, D148E, R171K, H179R

Biological target: Cry2 PHR (L348F)-p65AD-NLSx2 fusion construct as released from the TetR (I194T, 1-206)-CIB1 (-NLS)-T2A-Cry2 PHR (L348F)-p65AD-NLSx2 fusion construct
Experiment: cell-based or functional assay

Cry2 PHR (L348F)-p65AD-NLSx2 fusion construct as released from the TetR (I194T, 1-206)-CIB1 (-NLS)-T2A-Cry2 PHR (L348F)-p65AD-NLSx2 fusion construct, sequence (Q96524 other isoform, or with tags, fused parts or gaps L348F I194T L348F L348F I194T L348F): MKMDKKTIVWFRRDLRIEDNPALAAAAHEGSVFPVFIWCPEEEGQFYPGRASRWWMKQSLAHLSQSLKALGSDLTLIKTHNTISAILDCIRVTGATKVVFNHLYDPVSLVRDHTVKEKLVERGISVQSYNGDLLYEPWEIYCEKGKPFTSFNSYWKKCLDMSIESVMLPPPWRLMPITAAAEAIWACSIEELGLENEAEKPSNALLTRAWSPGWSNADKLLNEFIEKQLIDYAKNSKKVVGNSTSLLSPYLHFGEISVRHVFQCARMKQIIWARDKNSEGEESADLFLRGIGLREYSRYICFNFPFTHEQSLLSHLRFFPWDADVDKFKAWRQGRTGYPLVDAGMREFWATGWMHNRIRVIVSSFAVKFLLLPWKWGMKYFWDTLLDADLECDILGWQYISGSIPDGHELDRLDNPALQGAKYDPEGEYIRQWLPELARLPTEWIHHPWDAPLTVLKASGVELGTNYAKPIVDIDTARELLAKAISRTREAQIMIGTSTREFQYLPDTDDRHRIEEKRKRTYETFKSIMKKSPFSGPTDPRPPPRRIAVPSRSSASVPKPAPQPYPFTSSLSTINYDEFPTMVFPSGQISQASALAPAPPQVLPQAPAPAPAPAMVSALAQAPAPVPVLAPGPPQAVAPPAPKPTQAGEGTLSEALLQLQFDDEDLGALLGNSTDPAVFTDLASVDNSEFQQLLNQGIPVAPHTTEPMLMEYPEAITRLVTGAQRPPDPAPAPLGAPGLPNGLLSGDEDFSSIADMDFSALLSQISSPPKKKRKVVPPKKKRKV

Compared with B1, B2 is lower in Average of the Light/Dark ratio, Dox 0 ng/mL: 19 for the first, 2.2 for the second.

Compared with B3, B4 is higher in Average of the Light/Dark ratio, Dox 0 ng/mL: 3.2 for the first, 19 for the second.

Going from B5 to B6, the Average of the Light/Dark ratio, Dox 0 ng/mL falls from 1.5 to 1.4.

In the case of B7, the Average of the Light/Dark ratio, Dox 0 ng/mL is reported as 1.3.

Compared with B1, B7 is lower in Average of the Light/Dark ratio, Dox 0 ng/mL, 36 h light: 2780 for the first, 9.6 for the second.

Going from B1 to B2, the Average of the Light/Dark ratio, Dox 75 ng/mL rises from 1.1 to 17.

Compared with B3, B4 is lower in Average of the Light/Dark ratio, Dox 75 ng/mL: 22.5 for the first, 19.4 for the second.

First: B5
Second: B6
The Average of the Light/Dark ratio, Dox 75 ng/mL of the first is lower: 15.8 for the first, 31.6 for the second.

B7 gave an Average of the Light/Dark ratio, Dox 75 ng/mL of 32.8.

Compared with B1, B7 is higher in Average of the Light/Dark ratio, Dox 500 ng/mL, 36 h light: 0.2 for the first, 959 for the second.

Going from B1 to B2, the Light/Dark, Dox 0 ng/mL falls from 36.2 to 3.1.

Going from B3 to B4, the Light/Dark, Dox 0 ng/mL rises from 3.5 to 30.6.

Going from B5 to B6, the Light/Dark, Dox 0 ng/mL falls from 1.6 to 1.1.

B7 was tested, and the Light/Dark, Dox 0 ng/mL was 1.1.

Compared with B1, B7 is lower in Light/Dark, Dox 0 ng/mL, 36 h light: 525 for the first, 9.2 for the second.

First: B1
Second: B2
The Light/Dark, Dox 75 ng/mL of the first is lower: 0.9 for the first, 3.1 for the second.

Compared with B3, B4 is higher in Light/Dark, Dox 75 ng/mL: 3.4 for the first, 22.7 for the second.

Going from B5 to B6, the Light/Dark, Dox 75 ng/mL rises from 26.4 to 38.4.

For B7, the Light/Dark, Dox 75 ng/mL was 42.7.

First: B1
Second: B7
The Light/Dark, Dox 500 ng/mL, 36 h light of the first is lower: 0.2 for the first, 412 for the second.

Compared with B1, B2 is lower in Ub-ELuc luciferase, Dark, Dox 0 ng/mL: 4 relative for the first, 0.2 relative for the second.

Compared with B3, B4 is higher in Ub-ELuc luciferase, Dark, Dox 0 ng/mL: 0.2 relative for the first, 2.6 relative for the second.

First: B5
Second: B6
The Ub-ELuc luciferase, Dark, Dox 0 ng/mL of the first is lower: 0.2 relative for the first, 0.3 relative for the second.

With B7 the Ub-ELuc luciferase, Dark, Dox 0 ng/mL was 0.2 relative.

First: B1
Second: B7
The Ub-ELuc luciferase, Dark, Dox 0 ng/mL, 36 h light of the first is higher: 15.4 relative for the first, 3.6 relative for the second.

First: B1
Second: B2
The Ub-ELuc luciferase, Dark, Dox 75 ng/mL of the first is lower: 0.1 relative for the first, 0.2 relative for the second.

First: B3
Second: B4
The Ub-ELuc luciferase, Dark, Dox 75 ng/mL of the first is lower: 0.1 relative for the first, 3.1 relative for the second.

Compared with B5, B6 is lower in Ub-ELuc luciferase, Dark, Dox 75 ng/mL: 5.9 relative for the first, 0.3 relative for the second.

In the case of B7, the Ub-ELuc luciferase, Dark, Dox 75 ng/mL is reported as 1.2 relative.

Compared with B1, B7 is higher in Ub-ELuc luciferase, Dark, Dox 500 ng/mL, 36 h light: 9.9 relative for the first, 22.8 relative for the second.

Compared with B1, B2 is lower in Ub-ELuc luciferase, Light, Dox 0 ng/mL: 76.7 relative for the first, 0.5 relative for the second.

Going from B3 to B4, the Ub-ELuc luciferase, Light, Dox 0 ng/mL rises from 0.5 relative to 58.1 relative.

B5 and B6 are the same in Ub-ELuc luciferase, Light, Dox 0 ng/mL: 0.3 relative for the first, 0.3 relative for the second.

For B7, the Ub-ELuc luciferase, Light, Dox 0 ng/mL was 0.2 relative.

Compared with B1, B7 is lower in Ub-ELuc luciferase, Light, Dox 0 ng/mL, 36 h light: 8090 relative for the first, 25.3 relative for the second.

First: B1
Second: B2
The Ub-ELuc luciferase, Light, Dox 75 ng/mL of the first is lower: 0.1 relative for the first, 0.7 relative for the second.

First: B3
Second: B4
The Ub-ELuc luciferase, Light, Dox 75 ng/mL of the first is lower: 0.4 relative for the first, 41.4 relative for the second.

First: B5
Second: B6
The Ub-ELuc luciferase, Light, Dox 75 ng/mL of the first is higher: 76.7 relative for the first, 12.7 relative for the second.

Binder B7 has a Ub-ELuc luciferase, Light, Dox 75 ng/mL of 51.7 relative.

Compared with B1, B7 is higher in Ub-ELuc luciferase, Light, Dox 500 ng/mL, 36 h light: 1.8 relative for the first, 9140 relative for the second.
